Experimental data from PMC7354485 (2020).

Tests used:
[1] = target: pUL53 hook peptide (Human cytomegalovirus) (UniProt P16794); details: cited from earlier work
[2] = target: pUL50 (Human cytomegalovirus) (UniProt P16791); assay: competition with pUL50-pUL53 interaction; details: cited from earlier work
[3] = target: T1, pUL50 (Human cytomegalovirus, UniProt P16791); assay: competition with pUL50-pUL53 interaction
T1 chain: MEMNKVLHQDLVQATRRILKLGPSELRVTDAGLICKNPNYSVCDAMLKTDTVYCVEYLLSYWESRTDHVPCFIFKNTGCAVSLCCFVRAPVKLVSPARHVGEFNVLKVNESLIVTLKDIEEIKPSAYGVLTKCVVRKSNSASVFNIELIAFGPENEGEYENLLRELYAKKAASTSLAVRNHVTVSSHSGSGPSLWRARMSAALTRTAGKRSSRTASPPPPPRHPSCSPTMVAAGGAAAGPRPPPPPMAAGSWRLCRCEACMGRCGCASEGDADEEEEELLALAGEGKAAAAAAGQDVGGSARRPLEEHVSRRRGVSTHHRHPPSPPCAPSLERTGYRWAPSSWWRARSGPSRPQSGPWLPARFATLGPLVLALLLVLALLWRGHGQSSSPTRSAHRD

[4] = target: T2, BFRF1 (Epstein-Barr virus, UniProt P03185); assay: fluorescence polarization
T2 chain: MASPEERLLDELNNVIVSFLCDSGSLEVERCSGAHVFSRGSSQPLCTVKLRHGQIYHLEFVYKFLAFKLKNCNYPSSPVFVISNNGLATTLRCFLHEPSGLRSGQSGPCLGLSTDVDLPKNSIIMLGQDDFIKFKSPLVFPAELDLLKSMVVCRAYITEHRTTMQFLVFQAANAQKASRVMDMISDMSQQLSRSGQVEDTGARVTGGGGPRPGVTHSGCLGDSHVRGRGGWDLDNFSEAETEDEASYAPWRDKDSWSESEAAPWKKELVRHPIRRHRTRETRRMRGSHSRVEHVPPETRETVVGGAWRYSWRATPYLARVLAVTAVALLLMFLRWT

[5] = target: T1, pUL50; assay: fluorescence polarization

Sequence of pUL53 hook peptide (Human cytomegalovirus) (P16794 whole entry): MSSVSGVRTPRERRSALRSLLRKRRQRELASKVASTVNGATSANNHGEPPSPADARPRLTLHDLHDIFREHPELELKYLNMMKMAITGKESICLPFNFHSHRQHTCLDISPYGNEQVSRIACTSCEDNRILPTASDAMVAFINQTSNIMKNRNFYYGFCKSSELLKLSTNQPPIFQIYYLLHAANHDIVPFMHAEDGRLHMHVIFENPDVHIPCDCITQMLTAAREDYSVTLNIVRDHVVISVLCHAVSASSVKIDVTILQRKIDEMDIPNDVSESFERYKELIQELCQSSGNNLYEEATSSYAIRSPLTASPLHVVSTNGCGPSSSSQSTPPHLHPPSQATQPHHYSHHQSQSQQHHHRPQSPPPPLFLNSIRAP

Which Kd [1] does the source give for pUL50 (from UniProt P16791) here?
The Kd was 120 nM.

With pUL53 hook peptide as the molecule, how does the IC50 [2] read?
Its IC50 is 110 nM.

B1: pUL53 hook peptide (peptide)
chain: LTLHDLHDIFREHPELELKYLNMMKMAIT
With B1 as the molecule, how does the IC50 [3] read?
The IC50 was 50 nM.

B2: BFLF2 hook peptide 78-110 (peptide)
chain: DRSHFSLRDFFRGISANFELGKDFLREMNTPIH
Which Kd [4] does the source give for B2 here?
The Kd was 117 nM.

B3: pUL53 hook peptide 59-87 (peptide)
chain: LTLHDLHDIFREHPELELKYLNMMKMAIT
With B3 as the molecule, how does the Kd [5] read?
Its Kd is 120 nM.
